The values that follow come from article PMC3160652 (The EMBO Journal, 2011).

The target in the experiment is T1, GST–Ubp3 (UBP3 cloned into pGEX4T, PEN253) (S. cerevisiae, UniProt Q01477 1-912).
T1 sequence (looked up): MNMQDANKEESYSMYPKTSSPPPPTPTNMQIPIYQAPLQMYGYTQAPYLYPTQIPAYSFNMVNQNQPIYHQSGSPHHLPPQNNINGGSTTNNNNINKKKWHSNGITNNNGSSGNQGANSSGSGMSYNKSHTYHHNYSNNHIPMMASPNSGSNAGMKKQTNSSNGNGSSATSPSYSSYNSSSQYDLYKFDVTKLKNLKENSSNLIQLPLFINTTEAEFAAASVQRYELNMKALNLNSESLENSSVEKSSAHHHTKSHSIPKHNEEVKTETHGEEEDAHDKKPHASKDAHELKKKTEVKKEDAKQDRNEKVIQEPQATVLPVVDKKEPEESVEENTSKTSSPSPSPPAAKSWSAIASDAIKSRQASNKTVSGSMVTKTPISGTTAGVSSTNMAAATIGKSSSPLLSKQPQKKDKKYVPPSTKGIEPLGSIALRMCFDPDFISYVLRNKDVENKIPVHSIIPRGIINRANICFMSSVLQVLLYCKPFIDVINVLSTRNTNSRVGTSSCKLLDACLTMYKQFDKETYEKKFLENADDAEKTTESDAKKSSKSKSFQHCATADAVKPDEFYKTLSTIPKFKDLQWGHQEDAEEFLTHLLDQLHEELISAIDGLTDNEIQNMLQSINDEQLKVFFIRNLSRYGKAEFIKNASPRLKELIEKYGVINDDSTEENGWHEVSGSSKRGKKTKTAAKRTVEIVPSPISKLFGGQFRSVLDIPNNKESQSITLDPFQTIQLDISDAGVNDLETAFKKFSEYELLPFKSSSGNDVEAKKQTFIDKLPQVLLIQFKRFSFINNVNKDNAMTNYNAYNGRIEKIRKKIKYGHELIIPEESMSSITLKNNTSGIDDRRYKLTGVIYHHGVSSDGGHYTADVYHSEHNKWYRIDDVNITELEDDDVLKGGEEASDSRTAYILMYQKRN
Briefly: pull-down.

B1: His-tagged Hog1 (enzyme, S. cerevisiae, UniProt P32485 1-435, looked up)
chain: MTTNEEFIRTQIFGTVFEITNRYNDLNPVGMGAFGLVCSATDTLTSQPVAIKKIMKPFSTAVLAKRTYRELKLLKHLRHENLICLQDIFLSPLEDIYFVTELQGTDLHRLLQTRPLEKQFVQYFLYQILRGLKYVHSAGVIHRDLKPSNILINENCDLKICDFGLARIQDPQMTGYVSTRYYRAPEIMLTWQKYDVEVDIWSAGCIFAEMIEGKPLFPGKDHVHQFSIITDLLGSPPKDVINTICSENTLKFVTSLPHRDPIPFSERFKTVEPDAVDLLEKMLVFDPKKRITAADALAHPYSAPYHDPTDEPVADAKFDWHFNDADLPVDTWRVMMYSEILDFHKIGGSDGQIDISATFDDQVAAATAAAAQAQAQAQAQVQLNMAAHSHNGAGTTGNDHSDIAGGNKVSDHVAANDTITDYGNQAIQYANEFQQ
As to B1, the binding result is listed as “binds”.
